# Results: the RNAGym collection of RNA variant scans (doi:10.1093/molbev/msab373)
# B1: Azoarcus group I ribozyme (parent)
# chain: GUGCCUUGCGCCGGGAAACCACGCAAGGGAUGGUGUCAAAUUCGGCGAAACCUAAGCGCCCGCCCGGGCGUAUGGCAACGCCGAGCCAAGCUUCGGCGCCUGCGCCGAUGAAGGUGUAGAGACUAGACGGCACCCACCUAAGGCAAACGCUAUGGUGAAGGCAUAGUCCAGGGAGUGGCGAAAGUCACACAAACCGG
# Variants of: B1
# Assay: reverse-splicing fitness (ratio to wild type); higher = more active; in vitro selection; Mg2+ level not given
# Procedure, shortened: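 An in vitro group I ribozyme library with randomized positions was T7-transcribed and gel-purified. In triplicate, 10 pmol RNA in EPPS pH 7.5 was reacted with 50 pmoles of a 30-nt RNA substrate for 1 h at 37 °C across several added MgCl2 levels (1–48 mM), then stopped with EDTA. Products were reverse transcribed from a substrate-complementary primer, PCR-amplified and sequenced (HiSeq 4000). Fitness is a variant's read proportion after selection over that before, normalised to wild type.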
row,Variant,reverse-splicing fitness
1,C82U A111G A145C C150A C169G,0.0066
2,C82U A111G A145G C150G C169G,0.007
3,C82U A111G A145G C150G C169U,0.00891
4,C82U A111G A145G C150G C169A,0.00883
5,C82U A111G A120U C150G C169A U176C,0.00364
6,C82U A111G A120U C150G C169A U176G,0.00235
7,C82U A111G A120U C150G C169A U176A,0.00509
8,C82U A111G A120U A145G U176A,0.0106
9,C82U A111G A120U A145G U176G,0.00369
10,C82U A111G A120U A145G U176C,0.0172
11,C82U A111G A120U A145C C150G C169G U176A,0.00255
12,C82U A111G A120U A145C C150G C169G U176C,0.00251
13,C82U A111G A120U A145C C150G C169G U176G,0.00197
14,C82U A111G A145C,0.406
15,C82U A111G A145G,0.433
16,C82U A111G A120U A145U C150A C169U,0.00292
17,C82U A111G A120U A145U C150A C169A,0.00228
18,C82U A111G A120U A145U C150A C169G,0.00226
19,C82U A111G A145G C150G C169G U176C,0.00848
20,C82U A111G A145G C150G C169G U176G,0.00507
21,C82U A111G A145G C150G C169G U176A,0.00977

row,Variant,reverse-splicing fitness
1,C82U A111G A120U A145G C150G C169U,0.00654
2,C82U A111G A120U A145G C150G C169A,0.00768
3,C82U A111G A120U A145G C150G C169G,0.00671
4,C82U A111G A120U A145G C150A U176C,0.00749
5,C82U A111G A120U A145G C150A U176G,0.00267
6,C82U A111G A120U A145G C150A U176A,0.00588
7,C82U A111G A145G C150A C169A U176G,0.00546
8,C82U A111G A145G C150A C169A U176A,0.0187
9,C82U A111G A145G C150A C169A U176C,0.0247
10,C82U A111G A120U C169G U176C,0.00265
11,C82U A111G A120U C169G U176G,0.00183
12,C82U A111G A120U C169G U176A,0.0028
13,C82U A111G A120U A145U C150A C169G U176A,0.00245
14,C82U A111G A120U A145U C150A C169G U176C,0.00253
15,C82U A111G A120U A145U C150A C169G U176G,0.00148
16,C82U A111G A120U C150A C169U U176G,0.00202
17,C82U A111G A120U C150A C169U U176A,0.00577
18,C82U A111G A120U C150A C169U U176C,0.00372
19,C82U A111G A120U C150G C169U U176G,0.00234
20,C82U A111G A120U C150G C169U U176A,0.00387
21,C82U A111G A120U C150G C169U U176C,0.00396

row,Variant,reverse-splicing fitness
1,C82U A111G A120U A145U C150G U176G,0.00254
2,C82U A111G A120U A145U C150G U176A,0.00344
3,C82U A111G A120U A145U C150G U176C,0.00492
4,C82U A111G A120U A145G C150G U176C,0.00719
5,C82U A111G A120U A145G C150G U176A,0.00494
6,C82U A111G A120U A145G C150G U176G,0.00276
7,C82U A111G A120U A145U C169U U176A,0.00252
8,C82U A111G A120U A145U C169U U176C,0.00254
9,C82U A111G A120U A145U C169U U176G,0.0016
10,C82U A111G A120U A145U C150A C169A U176C,0.00251
11,C82U A111G A120U A145U C150A C169A U176A,0.00277
12,C82U A111G A120U A145U C150A C169A U176G,0.00195
13,C82U A111G A120U A145C C150U C169G U176G,0.00171
14,C82U A111G A120U A145C C150U C169G U176A,0.00322
15,C82U A111G A120U A145C C150U C169G U176C,0.00203
16,C82U A111G A120U C150A C169U,0.00325
17,C82U A111G A120U C150A C169G,0.00358
18,C82U A111G A120U C150A C169A,0.00324
19,C82U A111G A145C C150G C169G U176C,0.00634
20,C82U A111G A145C C150G C169G U176G,0.0047
21,C82U A111G A145C C150G C169G U176A,0.00777

row,Variant,reverse-splicing fitness
1,C82U A111G A120U A145C C169U U176A,0.00232
2,C82U A111G A120U A145C C169U U176G,0.00126
3,C82U A111G A120U A145C C169U U176C,0.00209
4,C82U A111G A120U A145C C150U U176G,0.00212
5,C82U A111G A120U A145C C150U U176C,0.00518
6,C82U A111G A120U A145C C150U U176A,0.00377
7,C82U A111G A145C C150G U176C,0.0249
8,C82U A111G A145C C150G U176A,0.0112
9,C82U A111G A145C C150G U176G,0.00329
10,C82U A111G A145C C169G U176G,0.00461
11,C82U A111G A145C C169G U176C,0.0119
12,C82U A111G A145C C169G U176A,0.0196
13,C82U A111G A145G C150A C169U U176G,0.00552
14,C82U A111G A145G C150A C169U U176A,0.0135
15,C82U A111G A145G C150A C169U U176C,0.0151
16,C82U A111G A120U A145G C150G C169A U176G,0.00326
17,C82U A111G A120U A145G C150G C169A U176C,0.00712
18,C82U A111G A120U A145G C150G C169A U176A,0.0084
19,C82U A111G A120U A145U C150U C169G,0.00305
20,C82U A111G A120U A145U C150U C169A,0.00252
